7 molecules from patent US20090047356A1 (published 2009) can be followed below.

The target of one data set is T1, coagulation factor X (UniProt P00742 41-488, Gla (gamma-carboxyglutamate) domain mentioned; positions not given).
T1 construct: Substrate of the TF:VIIa complex
Kind of data set: SPR (Biacore 3000), Nanodiscs immobilized on NTA chip via His tag of MSP1, factor X flowed over. On the technique in general: SPR reads the build-up and loss of mass on a sensor chip optically.

The target in data set [1] is T2, coagulation factor VIIa (UniProt P08709 61-466, Gla (gamma-carboxyglutamate) domain mentioned; positions not given).
T2 construct: also called FVIIa
T2 sequence (looked up): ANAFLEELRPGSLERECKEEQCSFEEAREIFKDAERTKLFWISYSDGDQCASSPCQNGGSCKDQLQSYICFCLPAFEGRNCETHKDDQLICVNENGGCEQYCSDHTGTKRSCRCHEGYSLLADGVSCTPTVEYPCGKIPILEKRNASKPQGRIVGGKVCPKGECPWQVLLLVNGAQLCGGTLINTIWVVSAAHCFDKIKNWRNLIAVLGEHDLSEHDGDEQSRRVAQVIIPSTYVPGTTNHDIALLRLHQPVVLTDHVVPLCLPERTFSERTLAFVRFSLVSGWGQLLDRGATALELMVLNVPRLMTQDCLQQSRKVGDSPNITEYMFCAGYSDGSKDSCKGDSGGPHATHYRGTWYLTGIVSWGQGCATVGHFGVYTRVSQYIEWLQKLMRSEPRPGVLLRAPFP
Kind of data set: listed in Table 2 of binding constants for TF:VIIa complexes; method for this row not stated.

The target in data set [2] is coagulation factor X, P00742.
The target of data set [3] is T2, coagulation factor VIIa. Kind of data set: TF-dependent enhancement of factor VIIa enzymatic activity as readout for complex formation.
The target in data set [4] is T2, coagulation factor VIIa. In words: apparent Kd; TF-dependent enhancement of factor VIIa enzymatic activity as readout for complex formation.

Chain of coagulation factor X, P00742 (P00742 whole entry, looked up): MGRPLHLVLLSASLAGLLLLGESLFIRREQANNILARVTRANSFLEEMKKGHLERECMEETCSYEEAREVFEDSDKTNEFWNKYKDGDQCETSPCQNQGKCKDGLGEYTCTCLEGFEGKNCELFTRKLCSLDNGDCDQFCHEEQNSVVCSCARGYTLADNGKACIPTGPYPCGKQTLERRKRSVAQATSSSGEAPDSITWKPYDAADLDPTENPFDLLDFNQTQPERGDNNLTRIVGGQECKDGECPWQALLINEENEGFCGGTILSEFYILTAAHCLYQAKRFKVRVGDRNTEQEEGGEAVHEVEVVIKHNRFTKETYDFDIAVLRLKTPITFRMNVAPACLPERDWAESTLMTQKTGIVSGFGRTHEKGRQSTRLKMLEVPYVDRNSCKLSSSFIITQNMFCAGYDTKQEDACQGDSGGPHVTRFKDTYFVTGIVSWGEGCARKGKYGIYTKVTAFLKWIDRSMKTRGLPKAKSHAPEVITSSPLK
T1 sequence (P00742 41-488 limits assumed): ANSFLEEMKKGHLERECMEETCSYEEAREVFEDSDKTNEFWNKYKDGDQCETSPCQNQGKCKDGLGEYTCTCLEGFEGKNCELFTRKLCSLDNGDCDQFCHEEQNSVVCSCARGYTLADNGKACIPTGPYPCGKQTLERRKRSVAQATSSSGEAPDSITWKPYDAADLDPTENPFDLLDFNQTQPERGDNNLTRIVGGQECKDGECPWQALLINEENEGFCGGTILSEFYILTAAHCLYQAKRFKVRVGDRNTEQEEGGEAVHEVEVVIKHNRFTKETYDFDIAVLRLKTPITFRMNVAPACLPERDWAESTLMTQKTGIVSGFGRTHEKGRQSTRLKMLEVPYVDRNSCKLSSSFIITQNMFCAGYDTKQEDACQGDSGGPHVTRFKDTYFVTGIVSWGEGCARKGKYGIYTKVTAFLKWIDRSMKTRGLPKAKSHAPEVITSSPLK

B1: Nanodiscs containing 100% POPC (no TF) (other)
chain: MGHHHHHHIEGRLKLLDNWDSVTSTFSKLREQLGPVTQEFWDNLEKETEGLRQEMSKDLEEVKAKVQPYLDDFQKKWQEEMELYRQKVEPLRAELQEGARQKLHELQEKLSPLGEEMRDRARAHVDALRTHLAPYSDELRQRLAARLEALKENGGARLAEYHAKATEHLSTLSEKAKPALEDLRQGLLPVLESFKVSFLSALEEYTKKLNTQ
notes: Control discs immobilized on an NTA Biacore chip; Their only protein is MSP1; also called POPC Nanodiscs
As for B1, the binding result with coagulation factor X is given as “no binding (tested: 1 µM)”.

B2: soluble tissue factor (extracellular domain of TF) (receptor, UniProt P13726 33-251, looked up)
chain: SGTTNTVAAYNLTWKSTNFKTILEWEPKPVNQVYTVQISTKSGDWKSKCFYTTDTECDLTDEIVKDVKQTYLARVFSYPAGNVESTGSAGEPLYENSPEFTPYLETNLGQPTIQSFEQVGTKVNVTVEDERTLVRRNNTFLSLRDVFGKDLIYTLYYWKSSSSGKKTAKTNTNEFLIDVDKGENYCFSVQAVIPSRTVNRKSTDSPVECMGQEKGEFRE
notes: extracellular domain; also called sTF
The molecule B2 showed a Kd in the data set with coagulation factor VIIa [1] of about 3 nM.

B3: rTF:VIIa complex on PCPS vesicles (TF-liposomes, 20% PS, 80% PC) (protein)
chain 1: AEDQVDPRLIDGKSGTTNTVAAYNLTWKSTNFKTILEWEPKPVNQVYTVQISTKSGDWKSKCFYTTDTECDLTDEIVKDVKQTYLARVFSYPAGNVESTGSAGEPLYENSPEFTPYLETNLGQPTIQSFEQVGTKVNVTVEDERTLVRRNNTFLSLRDVFGKDLIYTLYYWKSSSSGKKTAKTNTNEFLIDVDKGENYCFSVQAVIPSRTVNRKSTDSPVECMGQEKGEFREIFYIIGAVVFVVIILVIILAISLHK
chain 2: T2 sequence (looked up)
B3: in data set [2], the Km (factor X activation by TF:VIIa) came out at 20.2 nM and the Km, app (factor X activation by rTF:VIIa) amounted to 20.2 nM.

B4: rTF:VIIa complex on rTF-PCPS-nanoscale discs (TF-Nanodiscs 20% PS, 80% PC) (protein)
chain 1: B3 chain 1
chain 2: T2 sequence (looked up)
chain 3: B1 chain
For the molecule B4, in data set [2], the Km (factor X activation by TF:VIIa) worked out at 68.6 nM and the Km, app (factor X activation by rTF:VIIa) was found to be 68.6 nM.

B5: TF:VIIa complex on TF-Nanodiscs 10% PS, 90% PC (protein)
chain 1: B3 chain 1
chain 2: T2 sequence (looked up)
chain 3: B1 chain
On to B5, for which, in data set [2], the Km (factor X activation by TF:VIIa) was 132 nM.

B6: rTF in PCPS vesicles (20 mol % PS, 80 mol % PC; PL:rTF 8700:1) (receptor)
chain: B3 chain 1
notes: Recombinant truncated human tissue factor from E. coli (not glycosylated), reconstituted into PCPS liposomes by the Bio-Bead method; also called TF-liposomes; rTF in phospholipid vesicles
Regarding B6, the Kd in the data set with coagulation factor VIIa [3] and with coagulation factor VIIa [4] was 0.0264 nM each time.

B7: TF:VIIa complex on TF-Nanodiscs 30% PS, 70% PC (protein)
chain 1: B3 chain 1
chain 2: T2 sequence (looked up)
chain 3: B1 chain
In the case of B7, the Km (factor X activation by TF:VIIa) in data set [2] was 45.2 nM.
